Reference: publication PMC5900763, “Granule-stored MUC5B mucins are packed by the non-covalent formation of N-terminal head-to-head tetramers” (The Journal of Biological Chemistry, 2018)

Assays:
[1] = biological target: the molecule itself; assay: SEC; Superose 6 3.2/300, 50 mM MES pH 6.2, 150 mM NaCl, no Ca2+
[2] = biological target: the molecule itself; assay: SEC; Superose 6 3.2/300, 50 mM MES pH 6.2, 150 mM NaCl, 4 mM CaCl2, 0 h incubation, room temperature; covalent dimers to tetramer

B1: MUC5B N-terminal part (MUC5B-N), recombinant covalent dimer (domain or fragment, human, UniProt Q9HC84 26-1304, looked up)
chain: QGPVEPSWENAGHTMDGGAPTSSPTRRVSFVPPVTVFPSLSPLNPAHNGRVCSTWGDFHYKTFDGDVFRFPGLCNYVFSEHCRAAYEDFNVQLRRGLVGSRPVVTRVVIKAQGLVLEASNGSVLINGQREELPYSRTGLLVEQSGDYIKVSIRLVLTFLWNGEDSALLELDPKYANQTCGLCGDFNGLPAFNEFYAHNARLTPLQFGNLQKLDGPTEQCPDPLPLPAGNCTDEEGICHRTLLGPAFAECHALVDSTAYLAACAQDLCRCPTCPCATFVEYSRQCAHAGGQPRNWRCPELCPRTCPLNMQHQECGSPCTDTCSNPQRAQLCEDHCVDGCFCPPGTVLDDITHSGCLPLGQCPCTHGGRTYSPGTSFNTTCSSCTCSGGLWQCQDLPCPGTCSVQGGAHISTYDEKLYDLHGDCSYVLSKKCADSSFTVLAELRKCGLTDNENCLKAVTLSLDGGDTAIRVQADGGVFLNSIYTQLPLSAANITLFTPSSFFIVVQTGLGLQLLVQLVPLMQVFVRLDPAHQGQMCGLCGNFNQNQADDFTALSGVVEATGAAFANTWKAQAACANARNSFEDPCSLSVENENYARHWCSRLTDPNSAFSRCHSIINPKPFHSNCMFDTCNCERSEDCLCAALSSYVHACAAKGVQLSDWRDGVCTKYMQNCPKSQRYAYVVDACQPTCRGLSEADVTCSVSFVPVDGCTCPAGTFLNDAGACVPAQECPCYAHGTVLAPGEVVHDEGAVCSCTGGKLSCLGASLQKSTGCAAPMVYLDCSNSSAGTPGAECLRSCHTLDVGCFSTHCVSGCVCPPGLVSDGSGGCIAEEDCPCVHNEATYKPGETIRVDCNTCTCRNRRWECSHRLCLGTCVAYGDGHFITFDGDRYSFEGSCEYILAQDYCGDNTTHGTFRIVTENIPCGTTGTTCSKAIKLFVESYELILQEGTFKAVARGPGGDPPYKIRYMGIFLVIETHGMAVSWDRKTSVFIRLHQDYKGRVCGLCGNFDDNAINDFATRSRSVVGDALEFGNSWKLSPSCPDALAPKDPCTANPFRKSWAQKQCSILHGPTFAACRSQVDSTKYYEACVNDACACDSGGDCECFCTAVAAYAQACHDAGLCVSWRTPDTCPLFCDFYNPHGGCEWHYQPCGAPCLKTCRNPSGHCLVDLPGLEGCYPKCPPSQPFFNEDQMKCVAQCGCYDKDGNYYDVGARVPTAENCQSCNCTPSGIQCAHSLEACTCTYEDRTYSYQDVIYNTTDGLGACLIAICGSNGTIIRKAVACPG
notes: MUC5B mucin, human, N-terminal part with the von Willebrand D1, D2, D' and D3 domains, residues 26-1304 of GenBank NM_002458; Disulfide-bonded (covalent) dimer through D3; Two such dimers form the non-covalent tetramer (Dx2) at pH 6.2 with Ca2+; also called MUC5B N-terminal covalent dimer; MUC5B N terminus; not shown: His6, N-terminal, kept
stoichiometry N [1]: 2 | stoichiometry N [2]: 4
